Data published in PMC11861179, “Propionate metabolism in Desulfurella acetivorans” (Frontiers in Microbiology, 2025).

Assays:
Assay in all cases: purified protein
[1] = test system: CC(=O)SCCNC(=O)CCNC(=O)[C@H](O)C(C)(C)COP(=O)(O)OP(=O)(O)OC[C@H]1O[C@@H](n2cnc3c(N)ncnc32)[C@H](O)[C@@H]1OP(=O)(O)O; settings: co-substrate oxaloacetate, 100 mM Tris-HCl pH 7.8, 55°C
[2] = test system: CC(C)(COP(=O)(O)OP(=O)(O)OC[C@H]1O[C@@H](n2cnc3c(N)ncnc32)[C@H](O)[C@@H]1OP(=O)(O)O)[C@@H](O)C(=O)NCCC(=O)NCCS; settings: citrate cleavage direction, 55°C
[3] = test system: CCC(=O)SCCNC(=O)CCNC(=O)[C@H](O)C(C)(C)COP(=O)(O)OP(=O)(O)OC[C@H]1O[C@@H](n2cnc3c(N)ncnc32)[C@H](O)[C@@H]1OP(=O)(O)O; settings: co-substrate oxaloacetate, 100 mM Tris-HCl pH 7.8, 55°C
[4] = test system: O=C(O)CC(=O)C(=O)O; settings: co-substrate acetyl-CoA, 100 mM Tris-HCl pH 7.8, 55°C

“Si-citrate/2-methylcitrate synthase (AHF97591) (Desulfurella acetivorans A63)” gave a Km [1] of 14 ± 1.8 µM, a Vmax [1] of 26 µmol/min/mg and a kcat/Km [1] of 1500 M⁻¹ s⁻¹. It also gave a Km [2] of 41 ± 11 µM, a Vmax [2] of 0.1 µmol/min/mg and a kcat/Km [2] of 2000 M⁻¹ s⁻¹. It also gave a Km [3] of 22 ± 3.5 µM, a Vmax [3] of 7.4 µmol/min/mg and a kcat/Km [3] of 300 M⁻¹ s⁻¹. For the same substance, the Km [4] was 30 ± 4.4 µM, the Vmax [4] was 21 µmol/min/mg and the kcat/Km [4] was 600 M⁻¹ s⁻¹.
